Source: publication PMC9388682, “Structural basis for cannabinoid-induced potentiation of alpha1-glycine receptors in lipid nanodiscs” (Nature Communications, 2022)

Biological target: the molecule itself
Assay: cryo-EM structure; purified GlyR in asolectin nanodiscs (MSP1E3D1), buffer A (200 mM NaCl, 20 mM HEPES pH 8.0); with or without 32 μM THC and 0, 0.1 or 1 mM glycine; Titan Krios 300 keV, RELION; homopentamer

B1: zebrafish glycine receptor alpha1 (GlyRα1), full-length, homopentamer in asolectin nanodiscs (receptor, UniProt O93430 25-444, looked up)
chain: ARKAASPMPPSEFLDKLMGKVSGYDARIRPNFKGPPVNVTCNIFINSFGSIAETTMDYRVNIFLRQQWNDPRLAYSEYPDDSLDLDPSMLDSIWKPDLFFANEKGANFHEVTTDNKLLRISKNGNVLYSIRITLVLACPMDLKNFPMDVQTCIMQLESFGYTMNDLIFEWDEKGAVQVADGLTLPQFILKEEKDLRYCTKHYNTGKFTCIEARFHLERQMGYYLIQMYIPSLLIVILSWVSFWINMDAAPARVGLGITTVLTMTTQSSGSRASLPKVSYVKAIDIWMAVCLLFVFSALLEYAAVNFIARQHKELLRFQRRRRHLKEDEAGDGRFSFAAYGMGPACLQAKDGMAIKGNNNNAPTSTNPPEKTVEEMRKLFISRAKRIDTVSRVAFPLVFLIFNIFYWITYKIIRSEDIHKQ
modifications: N-glycans at Asn62
notes: glycine receptor subunit alpha-1, zebrafish, codon-optimized full-length gene (NCBI NP_571477); residues of the models numbered as in UniProt O93430; Phe341-Lys394 (M3-M4 loop, ICD) not modelled in the structures; also called zebrafish homomeric GlyRα1; glycine α1 receptor
- stoichiometry N: 5
